The record followed here is article PMC8904574, “Bacterial F-type ATP synthases follow a well-choreographed assembly pathway” (Nature Communications, 2022).

First the molecules themselves.
B1: α-subunit of the F1 part of the Na+-F1FO-ATP synthase of Acetobacterium woodii, N-terminal StrepI tag (natural protein, UniProt P50000 1-502, looked up)
chain: MNLRPEEISQIIKNEIERYEDKLEVVDVGTVIQVGDGVARVHGLENAMAGELLAFPNEVYGMVLNLEEDNVGCVLLGYDDDIVEGDIVRCTGRIVEVPVGEAMIGRVVNALGFPVDGKGPIVTDHRRPVEVKAAGVIERESVNQPIQTGYKAIDSMIPIGRGQRELIIGDRQTGKTALAIDTIINQKGEDVICIYVAIGQKDSTVAQIVGQLEENNAMDYTIIVSAGAAQLAPLQYIAPYSGVTMAEYFMNEQQKDVLIIYDDLSKHAVAYRAMSLILRRPPGREAYPGDVFYLHSRLLERAAKLKAGGSITALPIIETQAGDVSAYIPTNVISITDGQIFLEAELFRSGIRPAVNPGISVSRVGGSAQIKSMKKVAGPLRIEYAQYRELASFAQFGSDLDDETKAQLAKGERIVEILKQDQYDPMNVEDQVLILYAATNGFLLDIEVKDIREFEKGLIKFAQKKYPEIMTKVKGKDGLSDEVVAAFAECIEAYKKVFSKSV
notes: ATP synthase subunit alpha (gene atpA) of the Na+-F1FO-ATP synthase, Acetobacterium woodii; also called α[WT]; StrepI-α; source: E. coli BL21gold(DE3), purified (Strep-Tactin, SEC); not shown: StrepI, N-terminal, kept
B2: β-subunit of the F1 part of the Na+-F1FO-ATP synthase of Acetobacterium woodii, N-terminal His6 tag (natural protein, UniProt P50002 1-466, looked up)
chain: MAQNIGKVVQVIGPVVDVKFQKDKLPKLNNAVNIELNGHTLVIEVAQQLGDDIVRCIAMDSTDGLMRNQEAVDTGSAIQVPVGKATLGRMFNVLGEPIDGKPFDTKDVVMHPIHRHPPSFEEQQTQPEMFETGIKVVDLICPYVRGGKIGLFGGAGVGKTVLIQELINNIATQHGGLSVFAGVGERTREGNDLYYEMMESGVINKTALCFGQMNEPPGARMRIALAGLTMAEYFRDDEGQDVLLFIDNIFRFTQAGSEVSALLGRMPSAVGYQPTLATEMGALQERITSTSKGSITSVQAVYVPADDLTDPAPATTFAHLDATTVLSRAITEKGIYPAVDPLDSTSRILDPKIVGQEHYETAREVQEILQRYKELQDIIAILGMDELSDADKITVSRARKVERFLSQPFNVAEQFTGTAGVYVTIGDTIKGFKEILEGQHDDLPESAFLLVGTIEDAVVKAKKIKG
notes: ATP synthase subunit beta (gene atpD) of the Na+-F1FO-ATP synthase, Acetobacterium woodii; also called β[WT]; His6-β; source: E. coli BL21gold(DE3), purified (Ni-NTA, SEC); also co-expressed with other F1 subunits in E. coli as the tagged subunit of the in cellula complexes; not shown: His6, N-terminal, kept
B3: central stalk γε complex of the A. woodii F1 ATP synthase (atpG and atpC expressed bicistronically, His6 tag on ε) (complex, Acetobacterium woodii)
chain 1: MAENVQDIKRRIKSVNSTMQITHAMELVASAKLRKSRELAEGRRPYFEAMIESIGRIVEKSGNARNIFMDQREVKKTAYIIITGDKGLAGGYNVNVAKLVEEHITDKENAVLFTVGSRGRDHFRNREYHIQGEYLGISERPNFFNAKEVTAIVMEGFKNGEYDEVYIAYTKFVSTITQHAQMMKLLPLSAEELITSGKVKTTEETKEEKSKMSDRELTIMTYEPEPEELLKYLIPNFVSSTVYGSMIESAASEQGARRTAMESATTNANEMIDGLTLQYNRVRQAAITQEISEIVGGAEALN
chain 2: MAETFRLKIIAPTGVFFDDDIERVVIRGIEGELAILAEHTPLTTNVAIGTFNIIFADKKKKNGTLLGGIATINPRETIILTDAAEWPEEIDIKRAQEAKERALKRIHDDKFDTARARAALERAIARINSKENV
notes: ATP synthase subunit gamma (gene atpG) of the Na+-F1FO-ATP synthase, Acetobacterium woodii; ATP synthase subunit epsilon (gene atpC) of the Na+-F1FO-ATP synthase, Acetobacterium woodii; source: E. coli BL21gold(DE3), co-expressed, purified (Ni-NTA, SEC); copies: 1 + 1
B4: in vitro assembled αβ heterodimer (StrepI-α with His6-β, in ATP/Mg2+ or other nucleotide/Mg2+) (complex, Acetobacterium woodii)
chain 1: B1 chain
chain 2: B2 chain
notes: ATP synthase subunit alpha (gene atpA), Acetobacterium woodii; as m1; ATP synthase subunit beta (gene atpD), Acetobacterium woodii; as m2; also called in vitro αβ; source: assembled in vitro from subunits purified from E. coli BL21gold(DE3); not shown: StrepI, N-terminal, kept; His6, N-terminal, kept; copies: 1 + 1

What all share (details): both partners purified
Assay [1] addresses B3. The assay can be described thus: native MS; LILBID-MS; purified subunits incubated in 50 mM KPi, 200 mM NaCl, 2 mM ATP, 2 mM MgCl2, 10% glycerol, pH 7.4, 4 °C, 1 h; exchanged into 100 mM ammonium acetate, 2 mM ATP, 2 mM MgCl2, pH 7.4.
Assay [2] addresses T1, α-subunit mutant α[R363K], A. woodii (Acetobacterium woodii, UniProt P50000 1-502, R363K).
T1 construct: ATP synthase subunit alpha (gene atpA), Acetobacterium woodii, point mutant; source: E. coli BL21gold(DE3), purified (Strep-Tactin, SEC)
The assay can be described thus: SEC; HPLC on a bioZen 1.8 µm SEC-3 column, 60 µg protein, elution buffer B (50 mM KPi, 200 mM NaCl, 2 mM ATP, 2 mM MgCl2, pH 7.4), 4 °C. In general terms: SEC sorts molecules by how far they enter the pores of the column.

Assay [3] has as its target T2, α-subunit mutant α[R363Q], A. woodii (Acetobacterium woodii, UniProt P50000 1-502, R363Q).
T2 construct: ATP synthase subunit alpha (gene atpA), Acetobacterium woodii, point mutant; source: E. coli BL21gold(DE3), purified (Strep-Tactin, SEC)
The description is as above.

Assay [4] addresses B1. Briefly: native MS; LILBID-MS; purified subunits incubated in 50 mM KPi, 200 mM NaCl, 2 mM ATP, 2 mM MgCl2, 10% glycerol, pH 7.4, 4 °C, 1 h; exchanged into 100 mM ammonium acetate, 2 mM ATP, 2 mM MgCl2, pH 7.4.
The target of assay [5] is B4. Described as above.
In assay [6] the target is T3, α[R363Q]β[WT] heterodimer assembled in vitro in ATP/Mg2+ (Acetobacterium woodii, UniProt P50000 1-502; P50002 1-466, R363Q).
T3 construct: ATP synthase subunit alpha (gene atpA), Acetobacterium woodii; as m9; ATP synthase subunit beta (gene atpD), Acetobacterium woodii; as m2; source: assembled in vitro from subunits purified from E. coli BL21gold(DE3); not shown: His6, N-terminal, kept; copies: 1 + 1
The description is as above.

For the molecule B1, the “stoichiometry N” value in assay [1] is ≤ 1.

As for B2, the binding result in assay [2], in assay [3] and in assay [4] was “binds” in each case. Further, the “stoichiometry N” value in assay [1] is ≤ 1.

As for B3, the binding result in assay [5] and in assay [6] was “binds” each time.

Turning to B4, in assay [1], the “stoichiometry N” value was found to be 3.

Usually stoichiometry N stands for the number of molecules, sites or subunits per partner or assembly.
